The results in this text go back to publication PMC10463352, “A signaling complex of adenylate cyclase CyaC of Sinorhizobium meliloti with cAMP and the transcriptional regulators Clr and CycR” (BMC Microbiology, 2023).

The chains are these.
B1: CycR-Strep (natural protein, Sinorhizobium meliloti, UniProt Q92MZ5 1-213, looked up)
chain: MVLPRAARTQRRTRIQEEKEEQILEAALEVFSANGFRGSTIDQIADVAGMSKPNLLYYFRTKEAMHRALIDRVLDTWLDPLRAFDAEGNPVAEIRSYIRRKLEMARDFPRESRLFANEVLQGAPRIVDELKGPLKQLVDEKAEVIRSWAKAGKIAKCDPYHLIFAIWSTTQHYADFDVQVRAVLGQENAGEGRFEDAARFLERLFVDGLQVRE
notes: TetR-like transcriptional regulator CycR (TR01819, product of gene smc01819) of Sinorhizobium meliloti; CycR-Strep printed as 28.3 kDa; The purification is told in words only for Clr-Strep; also called Strep-CycR; TR01819; source: E. coli BL21(DE3) with pMW3065, purified; not shown: Strep, C-terminal, kept
B2: His6-CyaC (enzyme, Sinorhizobium meliloti, UniProt Q92MZ6 1-557, looked up)
chain: MTILSASTRKKMHLISGAVLGVFVLLHFSNHALGLVSIDAMETGRRIFTSVWQSIPGTALLYGALLLHFLMALDSLYRRQTFRMPVGEALKIIFGLSLPFLLVPHVVAARVEPLLSGVYPDYPAILRTLWSSSFNTSRQSLALIVVWGHACLGAWFWMRGRAWFPKYETLLYTVALLVPIFALLGFVNGARSLERDYAEHGGYGDRAYSSQAPRVDPNLLDKIRLAFYGGFASLIGGTLVLRALPARGRIRIRYPDGRVAAVSLGFSVLEASRAAGIPHVSVCGGRGRCSTCRVRITQGLEGQPPPEAAELATLTRIGAPENVRLACQFRPVHNVSVVPILDTDSLGIKTQLARQNAGGRERRVAVLFCDLRDFTRIAEHRLPYDTVFLLNRYFEVVGEAVEGSGGVVDKFIGDGALAIFGLKTPLPEACRQALSAAARLSQGIRALNQTFEGELEQPLRLAIGLHAGPAIIGEMGYGQATSLTVVGDTINTASRLEGLAKEHDVELAVSAELVERAGLSFEGHRRLEIGLRGRKATLETWIIGDAAQLSLSLPMQG
notes: His6-CyaC printed as 64.0 kDa; Solubilised in detergent; also called SMc01818 protein; source: E. coli C43(DE3) with pMW3043, extracted from membranes with 1% n-dodecyl-β-D-maltoside, purified (Ni2+-NTA); not shown: His6, N-terminal, kept

The target of assay [1] is CyaC(K410A T484A), fused to the T18 or T25 fragment of Bordetella pertussis adenylate cyclase (Sinorhizobium meliloti). Nature of the assay: two-hybrid; bacterial adenylate cyclase two-hybrid (BACTH) in E. coli BTH101; T18 and T25 fusions co-expressed from plasmids; grown anaerobically in LB with 20 mM DMSO; β-galactosidase read-out, percent of the Zip-T18/Zip-T25 positive control.

Assay [2] addresses B2. Put plainly: SPR; Biacore T200, CM5 chip with StrepTactin; about 200 RU CycR-Strep captured; His6-CyaC injected at 10-5,000 nM; HBS-EP+ (10 mM HEPES pH 7.4, 150 mM NaCl, 3 mM EDTA, 0.05% P20), 25 °C; without cAMP. The note with it: both partners purified. On the technique in general: Surface plasmon resonance follows binding to a sensor surface in real time, without labels.
Assay [3] concerns the target B2. Nature of the assay: SPR; Biacore T200, CM5 chip with StrepTactin; about 200 RU CycR-Strep captured; His6-CyaC injected at 10-5,000 nM; HBS-EP+ (10 mM HEPES pH 7.4, 150 mM NaCl, 3 mM EDTA, 0.05% P20), 25 °C; with 500 µM cAMP. The note with it: both partners purified.
In the assay “CycR-Strep” the target is B1. Nature of the assay: SPR; Biacore T200, CM5 chip with StrepTactin; about 200 RU CycR-Strep captured; His6-CyaC injected at 10-5,000 nM; HBS-EP+ (10 mM HEPES pH 7.4, 150 mM NaCl, 3 mM EDTA, 0.05% P20), 25 °C; without cAMP. The note with it: both partners purified.

With “Clr (Smc02175), fused to the T18 or T25 fragment of Bordetella pertussis adenylate cyclase (natural protein)”, the BACTH β-galactosidase activity, percent of the Zip positive control in assay [1] amounted to 108%.

For the molecule B1, the Kd with His6-CyaC [2] turned out to be 160 nM; with His6-CyaC [3], 114 nM.

B2: the “stoichiometry N” value in the assay with CycR-Strep came to 1.

By Kd is commonly meant a measure of binding affinity in units of concentration. Higher therefore signals a looser complex. In general, stoichiometry N refers to the number of molecules, sites or subunits per partner or assembly.
